In article PMC10314757:

Legend:
[1] = target: FcγRIIIb (CD16b) (UniProt O75015); experiment: SPR; BIAcore X100; receptor (20 µg/mL) captured by anti-His-tag antibodies on a CM5 chip, each receptor on its own chip; charge variant as analyte, 2.5 µM to 40 µM, single-cycle; HBS-EP buffer (10 mM HEPES pH 7.4, 150 mM NaCl, 50 µM EDTA, 0.005% P20)
[2] = target: FcγRIIIa (CD16a) (UniProt P08637); experiment: as above

Substance | koff [1] | kon [1] | koff [2] | kon [2] | Kd [1]
trastuzumab proposed biosimilar, basic charge variants (basic peak) (antibody) | 0.33 s⁻¹ | 25600 M⁻¹ s⁻¹ |  |  | 
trastuzumab proposed biosimilar, acidic charge variants (acidic peak) (antibody; other documents disagree on this pair) |  |  | 0.08 s⁻¹ | 102000 M⁻¹ s⁻¹ | 
trastuzumab proposed biosimilar, main charge variant (main peak) (antibody) | 0.34 s⁻¹ | 15400 M⁻¹ s⁻¹ |  |  | 
trastuzumab proposed biosimilar, acidic charge variants (acidic peak) (antibody) | 0.82 s⁻¹ | 106000 M⁻¹ s⁻¹ |  |  | 14.3 µM
trastuzumab proposed biosimilar, basic charge variants (basic peak) (antibody; other documents disagree on this pair) |  |  | 0.05 s⁻¹ | 31300 M⁻¹ s⁻¹ | 
trastuzumab proposed biosimilar, main charge variant (main peak) (antibody; other documents disagree on this pair) |  |  | 0.09 s⁻¹ | 36600 M⁻¹ s⁻¹ | 
